Reference: US20170210824A1

Molecular target: Peptide-3B (NME1 H118, 1-pTza) (mammalian)
Assay: peptide dot blot array

1-pHis mAb SC1-1 (antibody)
lowest amount detected: 1 ng
